B1: Progranulin (Homo sapiens), P28799 (parent)
chain: MWTLVSWVALTAGLVAGTRCPDGQFCPVACCLDPGGASYSCCRPLLDKWPTTLSRHLGGPCQVDAHCSAGHSCIFTVSGTSSCCPFPEAVACGDGHHCCPRGFHCSADGRSCFQRSGNNSVGAIQCPDSQFECPDFSTCCVMVDGSWGCCPMPQASCCEDRVHCCPHGAFCDLVHTRCITPTGTHPLAKKLPAQRTNRAVALSSSVMCPDARSRCPDGSTCCELPSGKYGCCPMPNATCCSDHLHCCPQDTVCDLIQSKCLSKENATTDLLTKLPAHTVGDVKCDMEVSCPDGYTCCRLQSGAWGCCPFTQAVCCEDHIHCCPAGFTCDTQKGTCEQGPHQVPWMEKAPAHLSLPDPQALKRDVPCDNVSSCPSSDTCCQLTSGEWGCCPIPEAVCCSDHQHCCPQGYTCVAEGQCQRGSEIVAGLEKMPARRASLSHPRDIGCDQHTSCPVGQTCCPSLGGSWACCQLPHAVCCEDRQHCCPAGYTCNVKARSCEKEVVSAQPATFLARSPHVGVKDVECGEGHFCHDNQTCCRDNRQGWACCPYRQGVCCADRRHCCPAGFRCAARGTKCLRREAPRWDAPLRDPALRQLL

Variants of: B1
Conditions: with hxa1_human HOXA1, P49639
hxa1_human HOXA1, P49639, sequence (P49639 whole entry): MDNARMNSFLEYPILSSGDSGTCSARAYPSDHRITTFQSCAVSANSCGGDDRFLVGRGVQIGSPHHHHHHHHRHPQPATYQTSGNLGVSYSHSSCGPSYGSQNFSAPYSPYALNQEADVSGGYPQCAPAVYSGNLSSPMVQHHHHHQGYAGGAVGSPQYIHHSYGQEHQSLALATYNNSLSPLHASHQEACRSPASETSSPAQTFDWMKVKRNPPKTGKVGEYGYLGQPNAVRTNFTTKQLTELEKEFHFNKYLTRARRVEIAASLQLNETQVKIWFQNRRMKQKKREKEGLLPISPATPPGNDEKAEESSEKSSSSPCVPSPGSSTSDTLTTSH

| effect of a mutation on the interaction | Variant |
| --- | --- |
| with no effect | MWTLVSWVALTAGLVAGTRCPDGQFCPVACCLDPGGASYSCCRPLLDKWPTTLSRHLGGPCQVDAHCSAGHSCIFTVSGTSSCCPFPEAVACGDGHHCCPRGFHCSADGRSCFQRSGNNSVGAIQCPDSQFECPDFSTCCVMVDGSWGCCPMPQASCCEDRVHCCPHGAFCDLVHTRCITPTGTHPLAKKLPAQRTNRAVALSSSVMCPDARSRCPDGSTCCELPSGKYGCCPMPNATCCSDHLHCCLQDTVCDLIQSKCLSKENATTDLLTKLPAHTVGDVKCDMEVSCPDGYTCCRLQSGAWGCCPFTQAVCCEDHIHCCPAGFTCDTQKGTCEQGPHQVPWMEKAPAHLSLPDPQALKRDVPCDNVSSCPSSDTCCQLTSGEWGCCPIPEAVCCSDHQHCCPQGYTCVAEGQCQRGSEIVAGLEKMPARRASLSHPRDIGCDQHTSCPVGQTCCPSLGGSWACCQLPHAVCCEDRQHCCPAGYTCNVKARSCEKEVVSAQPATFLARSPHVGVKDVECGEGHFCHDNQTCCRDNRQGWACCPYRQGVCCADRRHCCPAGFRCAARGTKCLRREAPRWDAPLRDPALRQLL [P248L] |
| disrupting interaction strength | MWTLVSWVDLTAGLVAGTRCPDGQFCPVACCLDPGGASYSCCRPLLDKWPTTLSRHLGGPCQVDAHCSAGHSCIFTVSGTSSCCPFPEAVACGDGHHCCPRGFHCSADGRSCFQRSGNNSVGAIQCPDSQFECPDFSTCCVMVDGSWGCCPMPQASCCEDRVHCCPHGAFCDLVHTRCITPTGTHPLAKKLPAQRTNRAVALSSSVMCPDARSRCPDGSTCCELPSGKYGCCPMPNATCCSDHLHCCPQDTVCDLIQSKCLSKENATTDLLTKLPAHTVGDVKCDMEVSCPDGYTCCRLQSGAWGCCPFTQAVCCEDHIHCCPAGFTCDTQKGTCEQGPHQVPWMEKAPAHLSLPDPQALKRDVPCDNVSSCPSSDTCCQLTSGEWGCCPIPEAVCCSDHQHCCPQGYTCVAEGQCQRGSEIVAGLEKMPARRASLSHPRDIGCDQHTSCPVGQTCCPSLGGSWACCQLPHAVCCEDRQHCCPAGYTCNVKARSCEKEVVSAQPATFLARSPHVGVKDVECGEGHFCHDNQTCCRDNRQGWACCPYRQGVCCADRRHCCPAGFRCAARGTKCLRREAPRWDAPLRDPALRQLL [A9D] |

Variants of: B1
Conditions: with ARFGAP1, Q8N6T3-3
ARFGAP1, Q8N6T3-3, sequence (Q8N6T3 other isoform, or with tags, fused parts or gaps): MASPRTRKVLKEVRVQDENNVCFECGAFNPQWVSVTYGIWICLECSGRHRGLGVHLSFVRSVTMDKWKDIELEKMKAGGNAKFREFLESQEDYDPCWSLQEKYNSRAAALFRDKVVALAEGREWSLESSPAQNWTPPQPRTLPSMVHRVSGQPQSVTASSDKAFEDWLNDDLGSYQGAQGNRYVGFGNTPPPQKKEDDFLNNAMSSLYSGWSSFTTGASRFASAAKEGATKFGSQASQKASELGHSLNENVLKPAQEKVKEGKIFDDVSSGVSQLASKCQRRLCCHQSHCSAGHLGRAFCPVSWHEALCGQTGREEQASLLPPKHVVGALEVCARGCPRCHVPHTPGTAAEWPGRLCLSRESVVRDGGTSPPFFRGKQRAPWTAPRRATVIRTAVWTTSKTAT

| effect of a mutation on the interaction | Variant |
| --- | --- |
| with no effect | MWTLVSWVALTAGLVAGTRCPDGQFCPVACCLDPGGASYSCCRPLLDKWPTTLSRHLGGPCQVDAHCSAGHSCIFTVSGTSSCCPFPEAVACGDGHHCCPRGFHCSADGRSCFQRSGNNSVGAIQCPDSQFECPDFSTCCVMVDGSWGCCPMPQASCCEDRVHCCPHGAFCDLVHTRCITPTGTHPLAKKLPAQRTNRAVALSSSVMCPDARSRCPDGSTCCELPSGKYGCCPMPNATCCSDHLHCCLQDTVCDLIQSKCLSKENATTDLLTKLPAHTVGDVKCDMEVSCPDGYTCCRLQSGAWGCCPFTQAVCCEDHIHCCPAGFTCDTQKGTCEQGPHQVPWMEKAPAHLSLPDPQALKRDVPCDNVSSCPSSDTCCQLTSGEWGCCPIPEAVCCSDHQHCCPQGYTCVAEGQCQRGSEIVAGLEKMPARRASLSHPRDIGCDQHTSCPVGQTCCPSLGGSWACCQLPHAVCCEDRQHCCPAGYTCNVKARSCEKEVVSAQPATFLARSPHVGVKDVECGEGHFCHDNQTCCRDNRQGWACCPYRQGVCCADRRHCCPAGFRCAARGTKCLRREAPRWDAPLRDPALRQLL [P248L] |
| disrupting interaction strength | MWTLVSWVDLTAGLVAGTRCPDGQFCPVACCLDPGGASYSCCRPLLDKWPTTLSRHLGGPCQVDAHCSAGHSCIFTVSGTSSCCPFPEAVACGDGHHCCPRGFHCSADGRSCFQRSGNNSVGAIQCPDSQFECPDFSTCCVMVDGSWGCCPMPQASCCEDRVHCCPHGAFCDLVHTRCITPTGTHPLAKKLPAQRTNRAVALSSSVMCPDARSRCPDGSTCCELPSGKYGCCPMPNATCCSDHLHCCPQDTVCDLIQSKCLSKENATTDLLTKLPAHTVGDVKCDMEVSCPDGYTCCRLQSGAWGCCPFTQAVCCEDHIHCCPAGFTCDTQKGTCEQGPHQVPWMEKAPAHLSLPDPQALKRDVPCDNVSSCPSSDTCCQLTSGEWGCCPIPEAVCCSDHQHCCPQGYTCVAEGQCQRGSEIVAGLEKMPARRASLSHPRDIGCDQHTSCPVGQTCCPSLGGSWACCQLPHAVCCEDRQHCCPAGYTCNVKARSCEKEVVSAQPATFLARSPHVGVKDVECGEGHFCHDNQTCCRDNRQGWACCPYRQGVCCADRRHCCPAGFRCAARGTKCLRREAPRWDAPLRDPALRQLL [A9D] |

Variants of: B1
Conditions: with sgta_human SGTA

| effect of a mutation on the interaction | Variant |
| --- | --- |
| with no effect | MWTLVSWVALTAGLVAGTRCPDGQFCPVACCLDPGGASYSCCRPLLDKWPTTLSRHLGGPCQVDAHCSAGHSCIFTVSGTSSCCPFPEAVACGDGHHCCPRGFHCSADGRSCFQRSGNNSVGAIQCPDSQFECPDFSTCCVMVDGSWGCCPMPQASCCEDRVHCCPHGAFCDLVHTRCITPTGTHPLAKKLPAQRTNRAVALSSSVMCPDARSRCPDGSTCCELPSGKYGCCPMPNATCCSDHLHCCLQDTVCDLIQSKCLSKENATTDLLTKLPAHTVGDVKCDMEVSCPDGYTCCRLQSGAWGCCPFTQAVCCEDHIHCCPAGFTCDTQKGTCEQGPHQVPWMEKAPAHLSLPDPQALKRDVPCDNVSSCPSSDTCCQLTSGEWGCCPIPEAVCCSDHQHCCPQGYTCVAEGQCQRGSEIVAGLEKMPARRASLSHPRDIGCDQHTSCPVGQTCCPSLGGSWACCQLPHAVCCEDRQHCCPAGYTCNVKARSCEKEVVSAQPATFLARSPHVGVKDVECGEGHFCHDNQTCCRDNRQGWACCPYRQGVCCADRRHCCPAGFRCAARGTKCLRREAPRWDAPLRDPALRQLL [P248L] |
| disrupting interaction strength | MWTLVSWVDLTAGLVAGTRCPDGQFCPVACCLDPGGASYSCCRPLLDKWPTTLSRHLGGPCQVDAHCSAGHSCIFTVSGTSSCCPFPEAVACGDGHHCCPRGFHCSADGRSCFQRSGNNSVGAIQCPDSQFECPDFSTCCVMVDGSWGCCPMPQASCCEDRVHCCPHGAFCDLVHTRCITPTGTHPLAKKLPAQRTNRAVALSSSVMCPDARSRCPDGSTCCELPSGKYGCCPMPNATCCSDHLHCCPQDTVCDLIQSKCLSKENATTDLLTKLPAHTVGDVKCDMEVSCPDGYTCCRLQSGAWGCCPFTQAVCCEDHIHCCPAGFTCDTQKGTCEQGPHQVPWMEKAPAHLSLPDPQALKRDVPCDNVSSCPSSDTCCQLTSGEWGCCPIPEAVCCSDHQHCCPQGYTCVAEGQCQRGSEIVAGLEKMPARRASLSHPRDIGCDQHTSCPVGQTCCPSLGGSWACCQLPHAVCCEDRQHCCPAGYTCNVKARSCEKEVVSAQPATFLARSPHVGVKDVECGEGHFCHDNQTCCRDNRQGWACCPYRQGVCCADRRHCCPAGFRCAARGTKCLRREAPRWDAPLRDPALRQLL [A9D] |

Variants of: B1
Conditions: with otx1_human OTX1, P32242
otx1_human OTX1, P32242, sequence (P32242 whole entry): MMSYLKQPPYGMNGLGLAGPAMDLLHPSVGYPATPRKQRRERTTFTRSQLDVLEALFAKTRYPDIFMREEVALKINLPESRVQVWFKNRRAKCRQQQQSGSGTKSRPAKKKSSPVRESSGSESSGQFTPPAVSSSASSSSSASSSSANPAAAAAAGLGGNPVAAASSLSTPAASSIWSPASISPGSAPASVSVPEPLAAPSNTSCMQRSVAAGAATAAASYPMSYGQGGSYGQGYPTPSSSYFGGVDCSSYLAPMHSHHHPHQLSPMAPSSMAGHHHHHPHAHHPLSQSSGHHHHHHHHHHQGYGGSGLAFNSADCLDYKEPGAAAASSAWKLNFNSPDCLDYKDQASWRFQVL

| effect of a mutation on the interaction | Variant |
| --- | --- |
| with no effect | MWTLVSWVALTAGLVAGTRCPDGQFCPVACCLDPGGASYSCCRPLLDKWPTTLSRHLGGPCQVDAHCSAGHSCIFTVSGTSSCCPFPEAVACGDGHHCCPRGFHCSADGRSCFQRSGNNSVGAIQCPDSQFECPDFSTCCVMVDGSWGCCPMPQASCCEDRVHCCPHGAFCDLVHTRCITPTGTHPLAKKLPAQRTNRAVALSSSVMCPDARSRCPDGSTCCELPSGKYGCCPMPNATCCSDHLHCCLQDTVCDLIQSKCLSKENATTDLLTKLPAHTVGDVKCDMEVSCPDGYTCCRLQSGAWGCCPFTQAVCCEDHIHCCPAGFTCDTQKGTCEQGPHQVPWMEKAPAHLSLPDPQALKRDVPCDNVSSCPSSDTCCQLTSGEWGCCPIPEAVCCSDHQHCCPQGYTCVAEGQCQRGSEIVAGLEKMPARRASLSHPRDIGCDQHTSCPVGQTCCPSLGGSWACCQLPHAVCCEDRQHCCPAGYTCNVKARSCEKEVVSAQPATFLARSPHVGVKDVECGEGHFCHDNQTCCRDNRQGWACCPYRQGVCCADRRHCCPAGFRCAARGTKCLRREAPRWDAPLRDPALRQLL [P248L] |
| disrupting interaction strength | MWTLVSWVDLTAGLVAGTRCPDGQFCPVACCLDPGGASYSCCRPLLDKWPTTLSRHLGGPCQVDAHCSAGHSCIFTVSGTSSCCPFPEAVACGDGHHCCPRGFHCSADGRSCFQRSGNNSVGAIQCPDSQFECPDFSTCCVMVDGSWGCCPMPQASCCEDRVHCCPHGAFCDLVHTRCITPTGTHPLAKKLPAQRTNRAVALSSSVMCPDARSRCPDGSTCCELPSGKYGCCPMPNATCCSDHLHCCPQDTVCDLIQSKCLSKENATTDLLTKLPAHTVGDVKCDMEVSCPDGYTCCRLQSGAWGCCPFTQAVCCEDHIHCCPAGFTCDTQKGTCEQGPHQVPWMEKAPAHLSLPDPQALKRDVPCDNVSSCPSSDTCCQLTSGEWGCCPIPEAVCCSDHQHCCPQGYTCVAEGQCQRGSEIVAGLEKMPARRASLSHPRDIGCDQHTSCPVGQTCCPSLGGSWACCQLPHAVCCEDRQHCCPAGYTCNVKARSCEKEVVSAQPATFLARSPHVGVKDVECGEGHFCHDNQTCCRDNRQGWACCPYRQGVCCADRRHCCPAGFRCAARGTKCLRREAPRWDAPLRDPALRQLL [A9D] |

Variants of: B1
Conditions: with ccd33_human CCDC33, Q8N5R6
ccd33_human CCDC33, Q8N5R6, sequence (Q8N5R6 whole entry): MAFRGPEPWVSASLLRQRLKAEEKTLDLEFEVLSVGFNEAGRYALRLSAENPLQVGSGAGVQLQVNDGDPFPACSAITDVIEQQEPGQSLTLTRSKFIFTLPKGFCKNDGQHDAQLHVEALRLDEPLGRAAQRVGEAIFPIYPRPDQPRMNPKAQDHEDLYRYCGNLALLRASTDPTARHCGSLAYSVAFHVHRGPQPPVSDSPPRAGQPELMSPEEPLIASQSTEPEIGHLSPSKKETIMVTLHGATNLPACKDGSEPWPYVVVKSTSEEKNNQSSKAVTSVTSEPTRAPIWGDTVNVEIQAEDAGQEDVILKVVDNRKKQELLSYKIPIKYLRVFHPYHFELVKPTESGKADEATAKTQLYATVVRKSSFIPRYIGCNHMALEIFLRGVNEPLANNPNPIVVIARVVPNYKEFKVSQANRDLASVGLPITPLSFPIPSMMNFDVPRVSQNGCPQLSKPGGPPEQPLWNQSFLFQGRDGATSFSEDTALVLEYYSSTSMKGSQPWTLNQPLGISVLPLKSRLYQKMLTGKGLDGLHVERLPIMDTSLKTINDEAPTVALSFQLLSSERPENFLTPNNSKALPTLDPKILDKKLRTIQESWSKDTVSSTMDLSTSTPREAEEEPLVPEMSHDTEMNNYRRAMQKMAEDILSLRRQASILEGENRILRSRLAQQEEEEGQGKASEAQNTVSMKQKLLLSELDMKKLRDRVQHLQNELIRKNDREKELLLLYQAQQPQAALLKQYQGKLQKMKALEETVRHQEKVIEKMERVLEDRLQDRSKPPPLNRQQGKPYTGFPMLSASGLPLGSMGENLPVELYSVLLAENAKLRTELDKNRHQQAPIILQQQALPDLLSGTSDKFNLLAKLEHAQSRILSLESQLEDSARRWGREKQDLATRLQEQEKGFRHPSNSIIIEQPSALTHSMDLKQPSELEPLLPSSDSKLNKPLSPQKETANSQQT

| effect of a mutation on the interaction | Variant |
| --- | --- |
| with no effect | MWTLVSWVALTAGLVAGTRCPDGQFCPVACCLDPGGASYSCCRPLLDKWPTTLSRHLGGPCQVDAHCSAGHSCIFTVSGTSSCCPFPEAVACGDGHHCCPRGFHCSADGRSCFQRSGNNSVGAIQCPDSQFECPDFSTCCVMVDGSWGCCPMPQASCCEDRVHCCPHGAFCDLVHTRCITPTGTHPLAKKLPAQRTNRAVALSSSVMCPDARSRCPDGSTCCELPSGKYGCCPMPNATCCSDHLHCCLQDTVCDLIQSKCLSKENATTDLLTKLPAHTVGDVKCDMEVSCPDGYTCCRLQSGAWGCCPFTQAVCCEDHIHCCPAGFTCDTQKGTCEQGPHQVPWMEKAPAHLSLPDPQALKRDVPCDNVSSCPSSDTCCQLTSGEWGCCPIPEAVCCSDHQHCCPQGYTCVAEGQCQRGSEIVAGLEKMPARRASLSHPRDIGCDQHTSCPVGQTCCPSLGGSWACCQLPHAVCCEDRQHCCPAGYTCNVKARSCEKEVVSAQPATFLARSPHVGVKDVECGEGHFCHDNQTCCRDNRQGWACCPYRQGVCCADRRHCCPAGFRCAARGTKCLRREAPRWDAPLRDPALRQLL [P248L] |
| disrupting interaction strength | MWTLVSWVDLTAGLVAGTRCPDGQFCPVACCLDPGGASYSCCRPLLDKWPTTLSRHLGGPCQVDAHCSAGHSCIFTVSGTSSCCPFPEAVACGDGHHCCPRGFHCSADGRSCFQRSGNNSVGAIQCPDSQFECPDFSTCCVMVDGSWGCCPMPQASCCEDRVHCCPHGAFCDLVHTRCITPTGTHPLAKKLPAQRTNRAVALSSSVMCPDARSRCPDGSTCCELPSGKYGCCPMPNATCCSDHLHCCPQDTVCDLIQSKCLSKENATTDLLTKLPAHTVGDVKCDMEVSCPDGYTCCRLQSGAWGCCPFTQAVCCEDHIHCCPAGFTCDTQKGTCEQGPHQVPWMEKAPAHLSLPDPQALKRDVPCDNVSSCPSSDTCCQLTSGEWGCCPIPEAVCCSDHQHCCPQGYTCVAEGQCQRGSEIVAGLEKMPARRASLSHPRDIGCDQHTSCPVGQTCCPSLGGSWACCQLPHAVCCEDRQHCCPAGYTCNVKARSCEKEVVSAQPATFLARSPHVGVKDVECGEGHFCHDNQTCCRDNRQGWACCPYRQGVCCADRRHCCPAGFRCAARGTKCLRREAPRWDAPLRDPALRQLL [A9D] |

— IntAct's records for PubMed 25910212
